# Test results as given in patent US11262348B2, “Cell-based assays for detection of antibodies or other factors that neutralize uptake of lysosomal enzymes” (BIOMARIN PHARMACEUTICAL INC., priority 2015, dated 2022).
# Like-named read-outs stand apart in the source and are kept apart here. Marks after values point to notes of the source that are not given here.
# Columns and labels:
# [1] = system: Jurkat cells; test: Cell-based flow cytometry assay of Alexa488-rhGALNS uptake (screening assay, % SI); set-up: species or system human; settings: for NHPS (% SI): no AbPC; for MFI: Alexa488-rhGALNS 0.4 μg/mL, 20% pooled human serum
# Method: Cell uptake of rhGALNS is measured using flow cytometry to determine the amount of fluorophore-conjugated rhGALNS taken up by Jurkat cells. Jurkat cells are a non-adherent human T cell line that express CI-MPR, which binds and targets rhGALNS to the lysosome. rhGALNS neutralizing antibodies (NAb) are detected in samples by a decrease in fluorophore-conjugated rhGALNS uptake (calculated as % inhibition) that exceeds the screening cut point (SCP).
# For a 1:1 dilution, 60 μL per well of controls were added in duplicate or in quadruplicate for 2 sets into the appropriate wells. Similarly, for a 1:1 dilution of sample, 60 μL per well of patient screening samples were added into the appropriate wells. For a 1:1 dilution for the confirmation assay, 60 μL per well of patient confirmation samples were added in duplicate into the corresponding wells. The plate was covered, wrapped in foil and allowed to incubate overnight for 14 to 20 hours at 2-8° C.
# Assay: Prior to the sample incubation step, the cell plates were removed from the CO2 incubator and observed to ensure the cells were healthy and viable. […] After the incubation was completed, the cells were washed in PBS by centrifuging the plate for 6 min at 310×g in a tabletop centrifuge at 14 to 18° C., repeated two to five times as appropriate. After the last wash, the plate was removed from the centrifuge, the cell pellet resuspended in 100 μL viability stain (red fluorescent reactive dye 1:1000 dilution) and tested for viability. Once viability testing was complete, the cells were centrifuged 6 min at 310×g in a tabletop centrifuge at 14 to 18° C.
# Percent Signal Inhibition (% SI) is calculated as [% SI=1—mean median fluorescence intensity (MFI) of sample/mean MFI of control×100]. Confirmatory assay data were analyzed as recovery ratio, defined as mean confirmatory assay MFI of sample/mean screening assay MFI of sample. The titer was calculated as the interpolated dilution factor at which the sample crossed the titer cut point determined by linear regression analysis (Microsoft Excel).
# [2] = NAb and TAb titers and positivity in individuals treated with elosulfase alfa (clinical study); type: in vivo, human
# Method: Samples from a 24 week study of rhGALNS (elosulfase alfa) treatment were assessed for NAb at baseline and weeks 2, 4, 8, 12, 16, 20 and 24. rhGALNS was infused at 2.0 mg/kg body weight in two dosing cohorts, weekly and every other week (QOW). Positive samples (FIG. 2A) show comparatively low NAb titers [wk 24 mean 52 (range 0 to 1,098) in the weekly group and 130 (range 0 to 1,659) in the QOW group] relative to anti-rhGALNS total antibody (TAb) titers [wk 24 mean 167,737 (range 0 to 1.77×10^6) in the weekly group and 190,901 (range 810 to 1.77×10^6) in the QOW group] (FIG. 2B).
# NAb titers and clinical outcomes To compare the functional NAb assay with the previously reported ELISA-based CI-M6PR binding assay for detecting NAb in elosulfase alfa-treated individuals with Morquio A syndrome [Schweighardt et al., supra], serum samples from the clinical trial were reanalyzed with the cell-based assay. Sufficient serum-sample volumes were available for the majority (842/847 [99%]) of serum sample collection time points to obtain confirmed positive/negative results. The overall concordance was high (89%) between NAb positivity in the receptor binding assay and the cell-based assay. Furthermore, the concordance was consistent over the 24-week treatment period (FIG. 9A).
# TAb titers detected using the CI-M6PR binding assay reported previously [Schweighardt et al., supra] were compared to the time course for NAb titer development detected with the functional NAb assay (FIG. 9B). Titers of both TAbs and NAbs increased rapidly during the first 8 weeks of treatment then plateaued from week 8 to week 24 in both the QOW and QW treatment groups (FIG. 9B). Although the frequency of drug administration had minimal effect on TAb and NAb titers at week 24, the QW treatment group appeared to have higher titers of both TAbs and NAbs in the initial 4 weeks of treatment. Subjects in both the QOW and QW treatment groups developed different NAb titer courses over 24 weeks.
# [3] = Elosulfase alfa pharmacokinetics in individuals with Morquio A syndrome; type: in vivo, human; settings: QOW and QW cohorts, week 22 PK vs week 24 NAb titer
# Description: Effect of NAb Titer on Elosulfase Alfa Pharmacokinetics: In order to further explore the association between NAbs and pharmacokinetics, NAb titers from the functional NAb assay were compared to total clearance (CL) of drug after intravenous administration and elimination half-life (t1/2). Increased NAb titers were associated with prolonged t1/2 in both the QOW and QW cohorts (FIG. 12A).
# Antibodies that neutralize elosulfase alfa uptake through CI-M6PR may not exist at concentrations sufficient to prevent effective amounts of elosulfase alfa from reaching target tissues. Although NAbs that block uptake of drug are measureable in our cell-based NAb assay, this amount of NAbs may be insignificant relative to elosulfase alfa dose. This cell-based assay was designed to detect the lowest possible NAb concentrations, ideally prior to observed clinical effects. […] 53 (2014) 1137-1147]. […] 53 (2014) 1137-1147]. Although further investigation is needed, one aspect to the lack of neutralizing antibody effect on efficacy may be that rapid clearance of drug from plasma diminishes the rate of neutralizing antibody-elosulfase alfa complex formation. […] Scler. 15 (2009) 977-983].
# [4] = Efficacy in clinical study: 6MWT distance and urine keratan sulfate (uKS); type: in vivo, human; settings: 24-week treatment period, QOW and QW
# Method: The primary efficacy measure in the clinical study was the distance walked in a 6MWT, which provides a measure of endurance. Keratan sulfate, an rhGALNS substrate, was also measured in individuals' urine (uKS) to track the pharmacodynamic effect of treatment with elosulfase alfa. NAb titers detected with the functional NAb assay were plotted against the change from baseline to week 24 in 6MWT distance, and the percentage change in uKS from baseline. No association was observed between NAb titer and 6MWT (FIG. 11A) or NAb titer and uKS (FIG. 11B) in individuals dosed weekly or every 2 weeks.
# [5] = cited from earlier work; for proportion of patients with NAb positivity: long-term extension study
# [6] = after 22 weeks, cited from earlier work; for half-life (t1/2): plasma
# [7] = system: Jurkat cells; test: Confocal imaging of Alexa488-rhGALNS internalization and trafficking to lysosomes; type: cell-based, human; settings: LysoTracker Red
# Method: Confocal Imaging: Internalization of Alexa488-rhGALNS and trafficking to lysosomes was confirmed by confocal microscopy by incubating cells from the functional NAb assay described in section 2.3 with 50 nM LysoTracker Red (Molecular Probes) at 37° C. for 1 h. Cells were then washed with serum-free RPMI-1640 and mounted with Prolong Gold Antifade Mountant with DAPI (Molecular Probes), sealed, and visualized using a Leica SP8 confocal microscope (Leica Microsystems). Confocal Z-stacks were acquired using a 63× Plan-Apo objective with 4× zoom and LASX software (Leica Microsystems). Z-stacks were rendered in 3-D and exported using Volocity software version 6.3 (PerkinElmer).
molecule,measurement,setting,value
"Recombinant human N-acetylgalactosamine-6-sulfatase (protein, UniProt P34059 27-522, looked up, enzyme replacement therapy (elosulfase alfa) for the treatment of MPS IVA) N-acetylgalactosamine-6-sulfat …: APQPPNILLLLMDDMGWGDLGVYGEPSRETPNLDRMAAEGLLFPNFYSANPLCSPSRAALLTGRLPIRNGFYTTNAHARNAYTPQEIVGGIPDSEQLLPELLKKAGYVSKIVGKWHLGHRPQFHPLKHGFDEWFGSPNCHFGPYDNKARPNIPVYRDWEMVGRYYEEFPINLKTGEANLTQIYLQEALDFIKRQARHHPFFLYWAVDATHAPVYASKPFLGTSQRGRYGDAVREIDDSIGKILELLQDLHVADNTFVFFTSDNGAALISAPEQGGSNGPFLCGKQTTFEGGMREPALAWWPGHVTAGQVSHQLGSIMDLFTTSLALAGLTPPSDRAIDGLNLLPTLLQGRLMDRPIFYYRGDTLMAATLGQHKAHFWTWTNSWENFRQGIDFCPGQNVSGVTTHNLEDHTKLPLIFHLGRDPGERFPLSFASAEYQEALSRITSVVQQHQEALVPAQPQLNVCNWAVMNWAPPGCEKLGKCLTPPESIPKKCLWSH",concentration of unlabeled rhGALNS that reduced Alexa488-rhGALNS uptake,[1]; NPS without AbPC,≥ 0.22 µg/mL
same,rhGALNS concentration the assay can tolerate before interference with Alexa488-rhGALNS uptake,[1]; drug tolerance,up to 0.22 μg/mL
same,highest neat concentration of rhGALNS at which the low and high PC-spiked samples screened positive,[1]; highest concentration tested,2.00 µg/mL
same,NHPS (% SI),[1]; unlabeled elosulfase alfa 0.0027 μg/mL,−10.84 % SI
same,NHPS (% SI),[1]; unlabeled elosulfase alfa 0.008 μg/mL,3.79 % SI
same,NHPS (% SI),[1]; unlabeled elosulfase alfa 0.025 μg/mL,−7.21 % SI
same,NHPS (% SI),[1]; unlabeled elosulfase alfa 0.074 μg/mL,−5.58 % SI
same,NHPS (% SI),[1]; unlabeled elosulfase alfa 0.22 μg/mL,8.00 % SI
same,NHPS (% SI),[1]; unlabeled elosulfase alfa 0.67 μg/mL,26.94* % SI
same,NHPS (% SI),[1]; unlabeled elosulfase alfa 2.00 μg/mL,55.42* % SI
same,mean NAb titer,[2]; at 12 weeks,118±271
same,"NAb titer, mean","[2]; wk 24, 2.0 mg/kg QOW group",130
same,"anti-rhGALNS total antibody (TAb) titer, mean","[2]; wk 24, 2.0 mg/kg QOW group","190,901"
same,"NAb titer, mean","[2]; wk 24, 2.0 mg/kg weekly group",52
same,"anti-rhGALNS total antibody (TAb) titer, mean","[2]; wk 24, 2.0 mg/kg weekly group","167,737"
same,CL with increased NAb titers (trend),[3],decreased
same,t1/2 with increased NAb titers,[3],prolonged
same,"impact of NAb titers on efficacy (6MWT, uKS)",[4],no detrimental impact
same,development of drug-specific total antibodies (TAb),"[5]; clinical study, treated individuals",all individuals
same,proportion of patients with NAb positivity,[5]; week 36,85.9%
same,proportion of patients with NAb positivity,[5]; week 120,66.0%
same,half-life (t1/2),[6]; 2.0 mg/kg QOW,19 min
same,plasma Cmax,[6]; 2.0 mg/kg QOW,2600 ng/mL
same,half-life (t1/2),[6]; 2.0 mg/kg QW,36 min
same,plasma Cmax,[6]; 2.0 mg/kg QW,4000 ng/mL
"Alexa488-rhGALNS (conjugate, UniProt P34059 27-522, looked up, Alexa488 label) N-acetylgalactosamine-6-sulfat …: APQPPNILLLLMDDMGWGDLGVYGEPSRETPNLDRMAAEGLLFPNFYSANPLCSPSRAALLTGRLPIRNGFYTTNAHARNAYTPQEIVGGIPDSEQLLPELLKKAGYVSKIVGKWHLGHRPQFHPLKHGFDEWFGSPNCHFGPYDNKARPNIPVYRDWEMVGRYYEEFPINLKTGEANLTQIYLQEALDFIKRQARHHPFFLYWAVDATHAPVYASKPFLGTSQRGRYGDAVREIDDSIGKILELLQDLHVADNTFVFFTSDNGAALISAPEQGGSNGPFLCGKQTTFEGGMREPALAWWPGHVTAGQVSHQLGSIMDLFTTSLALAGLTPPSDRAIDGLNLLPTLLQGRLMDRPIFYYRGDTLMAATLGQHKAHFWTWTNSWENFRQGIDFCPGQNVSGVTTHNLEDHTKLPLIFHLGRDPGERFPLSFASAEYQEALSRITSVVQQHQEALVPAQPQLNVCNWAVMNWAPPGCEKLGKCLTPPESIPKKCLWSH",MFI,[1]; cells incubated at 4° C.,92.9±1.50
same,MFI,[1]; cells incubated at 37° C.,4425±98.6
same,Kuptake,"[1]; Hanes-Woolf plot linear regression, dose-response 0 to 363.6 nM",46.3 nM
same,Kuptake,"[1]; Jurkat T cells, 4 hours incubation at 37° C.",approximately 5 μg/mL
same,localization by confocal imaging,[7],co-localized with lysosomes
